Results: a protein production outcome set (Wang et al. 2014)

Experiment: label from the status in PepcDB records

## MTTPTPIRMLILEDSEDDLLLLLREVRRGGIDPAYERADSAAGLRRALDAGEWDVIVSDYNMPQFGALPALDIVKERGLDVPFIIVSGKIGEDLAVAAMKAGAHDYLMKGNLSRLVPAIERELREADERRRRRQAEEAMHAQFNQISTIFDSLNALVYVVDMNSYELLYLNKFGAQLFGEAWEGRTCHDVLHGGRSTPCDFCTNDKLIMDGKALPPYIWEYQNSISSRWYQCIDKAIRWTDGRMVRMEIAIDITERKEMERMKDEMISAVSHEMHTPLTAMMGFTEFLLENEVDRDLQKNYLKTIYRETERLNELITNFLQLQRLKASMVKFRITPVAVGLLVADVVSLYAAASKKHRIVVECPPDLPPVRGNEEQLYQAISNLVSNAIKYSPDGGDVTIGASAAADIVTLWVRDQGIGISPEFQEKIFERFFRVDNSDRRKVGGAGLGLTLVREIVATHGGRSWVESSPGKGSTFFISLPAMT
  protein production: failed

## MTTPVNGSVIPLISLRESRMPSLTDGAIRRALKQVEQTQKPVTLADGEGRGIGRLILFVRPMPTRVIAYWLVQQWRAGARSRKKIGAYPSMSLNQARNIFDRDFADAIQKGRSIKALGDTRAGTLGDLFDAYIAHLKSSGKKSWKEAEKGLNKVADTLGRHRPARDIEPHEIVDIIRPIYGRGTRSMADHVRGYLRAAFSWGIKSEHDYRHASPRRFGLTKNPAAGIPSEPYVPGNRWLDEEEFLRLYRWLECPDTPVHPPYTRAVRLLMLTGQRVEEIARLHIAQWDAKERIIDWSTTKNGKPHAIPVPDLAAELLESIKPNNYGWFFPSAFDPSKPVAHNTLYSFMWRQRERGVIPVVTNRDLRRTWKTLAGKAGLSKEIRDRLQNHTLQDVSSKAYDRWNYMPEKRAAMKQWNSFVRSVLTPDRLTSAA
  protein production: failed

## MTTQKLLSDCQFCSVVSKNNGEDPIGTANTSDNWLVLEAALPWTEEHLHSDRILSQIHDLFHELENRHIPVIPIAIAPDREYSVPGYVRALHYKRPTKSFAEFEKQEFLIPESQIGQFTSGFLEYPNDLDQFQTYQQPKNHIREIMVCTHGNVDVACSRFGYPIYQNLRQNYAAKSAGQLRVWRCSHIGGHQFAPTLFDLPTGQFWGHIEPEILDVLVWRNSPVKQLRQFYRGWSGMTKFEQIVEREIWMQHGWEWLQYQKSGQVLAKDTTNDEWNADWAEVRIDFTSPDNSIQGSYLARVEACSQVMTVFNSGKEQPLETVKQYRVSQLTQQLINI
  protein production: failed

## MTTQMPIASPRTEFYERAFGGFHDQAVAEVRKETYGEDLGQNDWSTVDEMRQFSQWLELSPQSHLLDVCSGSGGPALFLARNSGCRVTGVDLHPDALQTGRQLAQALELHDRSQFVECDVRQRMPFPDGTFDALWCIDSVIHIPDRLALLREWCRLLKPGGRFLYTDPTLVTGMVSKEEILLRGTPGYFLYTPIGLNERLIEQAGLRLDMQADLTHSITELSERWHAAREKRCAVLTATEGEEAFARMQSFLTATHRVSVEGRLSRWVFVGVRP
  protein production: failed

## MTTQTIDSAPHATWFVGASYGGTDDQMPRFLAEGIWENGYDDKLLEVVRSMRPGERIAIKSSYTRKHGLPFDSRGRAVSVMGIKAVGTITENLNDGKRVKVDWAKVEPVREWYFYTHRATIWRVLPGEWMNDALIAFAFDGKPQDVDRFRNEPFWRERYGTTSPEKQRFEWTDFYEAVAEKLLAHADDRTPLIEGIHEIASRVPGLTYLQDKFPDGTSGPLRDICPFTTMGTFNRSMTDANRKTLAGELAKLLGVTVPVPPSFEGIPVLNNQRSWFFAYADKRGAGDIDALWKVFVAASKMVDGDQLDTRDAFIRAYDEATQVWGVAWNLSTGLYWAHPWEFLTLDSQSRHYINKRLGLNVAISGQQGPCDGRAYLKLLDDLRSRFGEDGYPVHSFPDLSLASWMYKDPVDEPVPAGDIGTNAGAEQETEGEVREAFQVAAPIVPYSVEDILKDGCFLERAEIDRLLDRLRTKKNLILQGPPGTGKTWLAKRLAFALMGQKDDSKVRAVQFHPNLSYEDFVRGWRPTGEGKLSLADGVFMEAIKAASKDPSSKFVVVIEEINRGNPAQIFGELLTLLEAGKRTPNEALELCYPDADGKRRPVHIPENLYVVGTMNIADRSLALVDLALRRRFAFVGLEPRLGQVWRDWVVKECAVDPGLVADIERRIAELNDQIAADARLGKQFRIGHSYVTPAHRLEAGDTKKWFLQVVETEIGPLLDEYWFDAPDEAQKAIARLTQGWLEHHHHHH
  protein production: not failed

## MTTSIGGLFFNLVALSLLSAIGLGVVHGITYSKWMPLLGNNATFGIHKFSIQVNVKECIKGCMLAILTMVPFIIVIGIMIAPVFQQLMMMTMLGGSDAGSEFVLQYYPQIMASYFLYFVAILVFASYLYVTLRNLFLNNLTLANGTIRFHSSVTAIGMLLRMLAVLMGSSITCGLAYPWLKMWMVSWIANNTHVQGDLDSLELTNDDKPQDSGSLMWISRGIMPYVPFI
  protein production: failed

## MTTTGHVHFYIGTYTNPPSTSTSTGIARLSLNTETGELTRLDDVVVQRNPSYLTTTEHGLYTFSEMDRNEGTELAFFRGSESVSLPINGDYPCHLDIKEPLLAVANYGSGNVSVFQLDRDGKPLGLLADLYVDGCGPNLERQTSPHAHQVTFLKHSHQLVVVDLGSDSVLIYDYDAQPPDFSLSQVIHLPAGSGPRHVVFNQQESTAYVVCELSETLIVLVKHQDKWLISNQTELLEGEENQQAAAAIRLSQDETFLYVSCRAQNKISMFDVSGDTPKRRAAIHCEGVFPRDFVLSHDQKWLLVANQHSNNVVSFRRNPQTGEITPTGYDCEIGSPVCIVEQPLLEHHHHHH
  protein production: failed

## MTTYLIIGANRVGQLVARQLATESATVRLLHDGKETLPSDLATQVTELTGDLTQEATYTAALQDQPIIFSALTGMDVDLAFEALFDAQYHQRLTFQRFVMLSTAGVDQEVTGDLAYPGITDVAEYLKQQRYAAKLVDEAEFPYTILRPVTLADSPRRDPQIIKEGAAVPAGTVSRETVAQVAVSLLQAGGADYQSLAICLEHHHHHH
  protein production: failed

## MTTYTFDQVEEAIEQLYPDFTINTIEISGEGNDCIAYEINGNFIFKFPKHSRASINLLNEVTVLKTIHNELSLPIPEVVFTGMPSEMCQMSFAGFTKIKGVPLTPLLLKNLPKQSQDQAAKDLARFLSELHSINISGFKSNLVLDFREKINEDNKKIKKLLSRELKGHQMKKVDDFYRDILDNEIYFKYYPCLIHNDFSSDHILFDTEKNTICGIIDFGDAAISDPDNDFISLMEDDEEYGMEFVSKILNHYKHKDIPTVLEKYMMKEKYWSFEKIIYGKEYGYMDWYEEGLNEIRSIKIK
  protein production: not failed

## MTVAGLWLFAMALGASALGGMLGMASGIFIVPLLVLWGIDVHAAIAASIVSVIACSCGSAAAFLQSGLTHVRLAVVLETATTLGALTSVFLVGAVPVAALYALFAVVLVVSAWQMLARRRDPARASGAPACRWAGALRLHGRYRDPAAGRHRRYRVQRLPLGMSLMYGAGVLSALLGIGSGVLKIPAMDSALRLPLKVSSATSNFMIGVTAAASAAVYFARGEIDPAVAGPVALGSVAGSVLGARILMHVSGERLRLLFVAVLALLAVQMLLMALGVQWPGGGR
  protein production: failed

## MTVEYTASDLATYQNEVNEQIAKNKAHLESLTHPGSKVTFPIDQDISATPQNPNLKVFFFDIDNCLYKSSTRIHDLMQQSILRFFQTHLKLSPEDAHVLNNSYYKEYGLAIRGLVMFHKVNALEYNRLVDDSLPLQDILKPDIPLRNMLLRLRQSGKIDKLWLFTNAYKNHAIRCLRLLGIADLFDGLTYCDYSRTDTLVCKPHVKAFEKAMKESGLARYENAYFIDDSGKNIETGIKLGMKTCIHLVENEVNEILGQTPEGAIVISDILELPHVVSDLF
  protein production: not failed

## MTVIDDRDMMGAESSELSEAGARDYFELLKPRVMSLVVFTAFAGLVLAPGEINPILGLIAILCIAVGAGASGALNMWYDADIDAVMTRTAKRPIPSGRIAPREALAFGLTLSAFSVVILGLAVNWFSAGLLAFTIFFYAVVYTMWLKRSTPQNIVIGGAAGAFPPMLGWACVTGGVSLDSVILFLIIFLWTPAHFWALALFKMRDYGAVGIPMMPNVAGERSTKNQMIVYAVLTAAAAVAPFFTGLASAGYGIFAAVLSAIFVYCSFDVRRMPEGDEKMLPAKKMFAYSVLYLFAIFSGLLADHFAPALKAVISGVL
  protein production: failed

## MTVIIAGERSGAGKTTITLAMLAYLARQKLRVQSFKVGPDYIDPMFHSQITGRPCRNLDPFLTSEAYVQRCFHYHSQGTPYSLIEGVMGLFDGVPYQGLTDYSSTAHIARLLNLPIVFVMDCQRLSGSVAAIVQGYRHWQPGVNLVGVILNRVGGDRHLELLKIALEPLRIPILGVFFRQQDLTLPDRHLGLVPCGELPQIQQYFDQLAHVAAQQLDWPKLLPLLETPRNLPSPMSLFDVPQKSPQARLAIAQDQAFNFYYADNLDLLTHCGFELIPFSPLEDTELPPAIDGVYLGGGFPELFAEQLSQNQALKDQLKTLIHQGLPTYGECGGLMYLSQSLTNFEGQIFPMLEMLPTAVTMGGKLSLGYRQAQVVNSHSWLWQTESLRGHEFHRSQMTKLPNQALYRQRGLLAIDQNTTDGWCVGSVQASYLHLHWGSQISTVEKFRAACLAFQKKLSYLGKHPPFKSVPLRNTGGDAHGRE
  protein production: failed

## MTVKTEAAKGTLTYSRMRGMVAILIAFMKQRRMGLNDFIQKIANNSYACKHPEVQSILKISQPQEPELMNANPSPPPSPSQQINLGPSSNPHAKPSDFHFLKVIGKGSFGKVLLARHKAEEVFYAVKVLQKKAILKKKEEKHIMSERNVLLKNVKHPFLVGLHFSFQTADKLYFVLDYINGGELFYHLQRERCFLEPRARFYAAEIASALGYLHSLNIVYRDLKPENILLDSQGHIVLTDFGLCKENIEHNSTTSTFCGTPEYLAPEVLHKQPYDRTVDWWCLGAVLYEMLYGLPPFYSRNTAEMYDNILNKPLQLKPNITNSARHLLEGLLQKDRTKRLGAKDDFMEIKSHVFFSLINWDDLINKKITPPFNPNVSGPNDLRHFDPEFTEEPVPNSIGKSPDSVLVTASVKEAAEAFLGFSYAPPTDSFL
  protein production: failed

## MTVNAKTSPSAGNTWRDLPAAQQPEYPDTEALRAVIADLESYPPLVFAGECDQLRARMAAVAKGEAFLLQGGDCAEAFDAVSADHIRNKLKTLLQMGAVLTYAASVPVVKVGRIAGQYSKPRSKPTETRDGVTLPTYRGDSVNGFDFTEAARIPDPERLKRMYHASASTLNLVRAFTTGGYADLRQVHAWNQDFVKSSPSGQRYEQLAREIDNALNFMRACGTDPAEFQTVEFFSSHEALLLDYESALTRVDSRTGQLYDVSGHMVWIGERTRQLDHAHIEFASRIRNPIGIKLGPSTTAEEALQYIERLDPEREPGRLTFIVRMGADKIRDKLPELVEKVTASGATVAWITDPMHGNTYEAASGHKTRRFDDVLDEVKGFFEVHKSLGTHPGGIHVELTGDDVTECVGGGDEIFVDDLHQRYETACDPRLNRSQSLDLAFLVAEMYRDQ
  protein production: not failed

## MTVNMTKGQAISLQKNDGGTLTAVRMGLGWQAAPRRGLFGSRTREIDLDASAVLFADKQPVDVVFFRHLVSDDGSVRHTGDNLVGGVGQGGDDEAILVDLQRLPVHIDQIVFTVNSFTGQTFQEVQNAFCRLVDETNGEELARYTLAGGGQYTAQIMAKVHRAGAGWQMTALGTPSNGRTFQDLMPAILPHL
  protein production: failed

## MTVPWHLVALAFAVCLVVAAPGFLRVYYFVSLCYAGAIAAQSLVFALLFSTTISGWVTLQLLLLLIYGVRLGAFLAVRERNPAYAAELARAERRTAELKLWHQIAIWLGVSLLFTLLFLPALLTLSLQAQGAWPVSTPLGVMIMAVGLWVESLADWQKYRYKAEHPSHYCDTGLYRLVRCPNYLGEMVFWFGVWFSGLSAYGSGGAWTLTLLGMLYILALMTAAAAGLERKQDERYGDRPDYQEYVRSVPILFPWVPLFTLRKLLIRFR
  protein production: failed
